Here are results for 2 molecules from patent US8257758B2, “Process for the extraction, purification and enzymatic modification of soy 7S globulin alpha' subunit for use as hypocholesterolemizing agent” (Indena S.p.A., priority 2002, dated 2012).

In assay [1] the test system is rats fed with hypercholesterolemic diet. The assay is described as follows: Total cholesterol and triglycerids plasma levels in rats fed with hypercholesterolemic diet, 28 day oral treatment. The settings on record: for Total cholesterol / Total triglycerids: plasma, male CD rats, hypercholesterolemic diet, oral 28 days, after 16 hour fasting. The assay is classed as in vivo, rat. As for the experimental part:
Male rats CD SPF/VAF, weighing 75-100 g, were used. The animals were housed in makrolon cages (4-5 animals per cage) in environment with automatic control of light (12 hour light/12 hour darkness cycles), temperature (21±1° C.) and humidity (60±5%).
After 7 day housing, the animals were randomly divided into seven groups of 20 rats each (Table 2). During 28 days, one group was fed with normal diet (cod. 014RF25C; Mucedola S.r.l., Settimo Milanese, MI, Italy), whereas the others were fed with hypercholesterolemic diet consisting of 1% cholesterol, 0.5% cholic acid and 25% hydrogenated coconut oil (batch 332000, preparation Jan. 9, 2000; Laboratorio Dottori Piccioni, Gessate, MI, Italy), with access to water ad libitum. The diet was given daily (40 g, 09.00 a.m.) and the unconsumed amount was weighed. Treatment was carried out as follows.
Total cholesterol and triglycerids plasma levels were measured at the end of the 28 day treatment and after 16 hour fasting. […] After centrifugation for 15 min at 4° C. at 3000 rpm, plasma was recovered, frozen and stored at −20° C. until measurements.
Total cholesterol and triglycerids plasma concentrations (reported in Table 2) were determined according to conventional enzymatic assays.

In another assay the test system is LDL receptor. The note with it: hepatic cell line; Lovati et al. 1992, 1996; Manzoni et al. 1998; cited from earlier work.

With `CCOC(=O)C(C)(C)Oc1ccc(Cl)cc1` [clofibrate, reference compound], in assay [1] (dose 200 mg/kg), the “Total cholesterol” value is 191.2 ± 8.0 mg/dL and the “Total triglycerids” value worked out at 139.1 ± 5.8 mg/dL.

B1: α' subunit: soy β-conglycinin α′ subunit purified by Metal Affinity Chromatography under denaturant conditions (protein, UniProt P11827 63-621, looked up)
Beta-conglycinin alpha' …: VEEEEECEEGQIPRPRPQHPERERQQHGEKEEDEGEQPRPFPFPRPRQPHQEEEHEQKEEHEWHRKEEKHGGKGSEEEQDEREHPRPHQPHQKEEEKHEWQHKQEKHQGKESEEEEEDQDEDEEQDKESQESEGSESQREPRRHKNKNPFHFNSKRFQTLFKNQYGHVRVLQRFNKRSQQLQNLRDYRILEFNSKPNTLLLPHHADADYLIVILNGTAILTLVNNDDRDSYNLQSGDALRVPAGTTYYVVNPDNDENLRMITLAIPVNKPGRFESFFLSSTQAQQSYLQGFSKNILEASYDTKFEEINKVLFGREEGQQQGEERLQESVIVEISKKQIRELSKHAKSSSRKTISSEDKPFNLRSRDPIYSNKLGKLFEITPEKNPQLRDLDVFLSVVDMNEGALFLPHFNSKAIVVLVINEGEANIELVGIKEQQQRQQQEEQPLEVRKYRAELSEQDIFVIPAGYPVVVNATSDLNFFAFGINAENNQRNFLAGSKDNVISQIPSQVQELAFPGSAKDIENLIKSQSESYFVDAQPQQKEEGNKGRKGPLSSILRAFY
Consider B1, for which the “effect on cholesterol and total triglycerids plasma levels (in words)” value in assay [1] (administration to rats, table 2) was “remarkably decreasing”. Besides, in assay [1] (dose 10 mg/kg), the “Total cholesterol” value is reported as 182.2 ± 12.1 mg/dL and the “Total triglycerids” value amounted to 150.1 ± 9.8 mg/dL. In addition, the “LDL receptor activity (in words)” value in the assay on LDL receptor is reported as “capable of activating LDL receptor”.
